Source: the domain aggregation screens of Martell et al. (2025)

Assay: soluble fraction after stress (log2 fold change); higher = more stays soluble; pooled small domains, quantitative proteomics
Conditions: stress: 75 degC
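Note: 20 min heating vs room temperature control held 20 min.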

## HMIPNEKEAARWDALTAEHTAKLNALEGDALDKVGSHEDVSIKRAGVGDAAFREKILSRTHPDDLERALST
  soluble fraction (log2): -0.0132

## HMIQHFARKRRQLELAVQRLSGRMAETNGQVTADMQRLIQQVKALVAELSHVFSRAYLRRVLGGVALVIGS
  soluble fraction (log2): -0.597

## HMIQLTDAEFNELVTYIKKNYGINLIKKRLLIEARMYSVLAKHGFTSFTEYINLIKRDPAELNTMLNKLTT
  soluble fraction (log2): -3.26

## HMIQMRVKVPKNIAGGSLMGAHHFVKSALARTNPGGSTSNYKIQATDGTPLTLGDLTARQYDEVLIISG
  soluble fraction (log2): -0.668

## HMIQTKKVTFTVEPTVNFEKINISGIEFKINSGSSITAIYEKNSHNFDEVLDFLKQKGVKILDIVTED
  soluble fraction (log2): -0.251

## HMIRILIVDDSAFMRKLLSDVFEEDKNFVVVDTARNGQDAVEKVKRLKPDLVTMDVEMPVMDGLTAVEIIM
  soluble fraction (log2): -0.453

## HMIRSNLAEQAYAQLKALIHDFQLLPGDRFSENEMGTRLGVSRTPVREALFRLRNEGFLEVESKAGWYVK
  soluble fraction (log2): -3.04

## HMISAADLQTYLKGMDYPAGREDLVAHAQRNNAPESVITILQGFSDRTYRSAAEVSEEFGRE
  soluble fraction (log2): 0.495

## HMISADSSKVDTLVQVYSNMKPIQAAQVFEKMDEDLVIEILSRMKKKNAADILNLIKTEKAQVFAEKYA
  soluble fraction (log2): -0.109

## HMISAEPVGEDLFKVAFPFLGGSTVFEKTIEQFIEEHPSKRIDHIYTVPNPLRLKKADALIFYIITEEK
  soluble fraction (log2): -1.07

## HMISASDLQTYLKGMDYPARKEDLIVHAQRNNAPESVIAAIRQFSDRTYQSAADVSEEFGKI
  soluble fraction (log2): 0.602

## HMISDEELLVSTKKEIMSLATVLTKTDKKDDAIAIMKEYDPAANPNRIKDVNKAKELLERLQKLG
  soluble fraction (log2): -0.225

## HMISDISEIEAIIVEVLKVFPNQLQEYLDGKEKILSFFVGQVMQRTKGRANPSLVNEILKEKIKN
  soluble fraction (log2): -1.22

## HMISEAEGTILQLLKEADGTLPFTYKSDADEIKKVFGMSKKNFKRTLTELIEAKKIQLLDDAIVL
  soluble fraction (log2): -0.632

## HMISEKEIKIIEDILARWNGKLTWDDFTSKVAKKLNLPSLSKFTLMGYPEIKQAFLTRKQTLK
  soluble fraction (log2): -0.53

## HMISENFVEAKILLTEDNRPKSLEILKDIIRQHDKVYSPLSLFLILDEDLEENKEIILEYFDLVLS
  soluble fraction (log2): -0.327

## HMISESLLDEIPGLGETRRNSLLREFGSVAMIRKASAEEIASRVRGIGAEFAAAIHDFLQTH
  soluble fraction (log2): -0.446

## HMISFHEYLTQLLDEKGLTKAQVITDSNIQKNYGYQIFDGSKTPSRDKVIAIALAMQLTLDEANRLLHLSN
  soluble fraction (log2): -1.75

## HMISFTDLEHIEKMIENVLYTKTPLNLPPTDAKIRKIEHQIARRYGLNSESFGDEPRRFVVVYPNEERE
  soluble fraction (log2): -0.907

## HMISKAQLFSEEELTELYRATGYQLENDPEIHREQFEALQAVRAKIEYAVPDVQEKLEQEQNLGQQ
  soluble fraction (log2): 0.512

## HMISKRFQVDEENSNNRVDIFLANNLDSISRGIVQQLILDGKVLVNGETVKRNHLLKTNDEVDISFEI
  soluble fraction (log2): 0.349

## HMISRDPYDAGAIKRHFSASGLFSSKELAHYLGKSVSTAKNVLSDLQQQGIVEMVGQGPATKYRFI
  soluble fraction (log2): 0.772

## HMISSRDAAVIGLVENIQRAQLNAIDESSGFKHLMETYNLESKEIALLVGKSRSYVSNSLRLSK
  soluble fraction (log2): 0.124

## HMISTVFYVDVKGEVHHPGVYQMKAENRVKDLIEAAGGFTPLADDQKLNLAQLLEDQMVIVVPKKGEEV
  soluble fraction (log2): 0.243

## HMISVTNRTGTGLNDVKVEVFPVGRQMVFSATVFRVESEATNRFSLGELRGSDGTPFNQRVHRPESI
  soluble fraction (log2): -0.184

## HMITAEQENILFEKASDDISNNIINKGIWTKAYSQAGGDESKQKAIYIDLLVNYYKMLIKAGEEFEDI
  soluble fraction (log2): -2.42

## HMITALLPGTVLIREFDGRDYHVTVATDGRFEMDGHKYPSLSAVAKHITGTQWSGPAFFGLN
  soluble fraction (log2): -1.06

## HMITASNYFIEVERIGIETLPETLKKGHDLVVKSTSNGTNWANYQTSEGIKKVIDLYFQKLNEYANTV
  soluble fraction (log2): -1.83

## HMITDSSEIEAMVDALVKENPGQAEQYKDGNMKVAGWFIGQIMKVSKGKANPQLVGDLLKKKLG
  soluble fraction (log2): 0.197

## HMITERVPVPDLTGMPLMEAIKTLNSSKLQYQVVGSVIEGDENRIIDQTPKPDIMVSEKSIVLLYLETYRG
  soluble fraction (log2): -2.6

## HMITIDADTGKRVYTRKEVADLVGASTQSIRLWEDAGAIPASVRDEGGYRYWYEEDLEAIKAYAS
  soluble fraction (log2): -0.203

## HMITKAIELAEEAEKETVWLGVWEHNHPAQKFYQSLGFVKTDEHDFYMGNERHTDYTMTKQLK
  soluble fraction (log2): -0.344

## HMITLKKRRQEAILEIIEKYDLSTQDELLQKLKDSGFDATQATVSRDIKELRLVKTMGANGQYKYAVT
  soluble fraction (log2): -0.881

## HMITMADKIDTALSEMAANNEKINVSQVAKRLGISNSAIYKFNPEKIPDIQTAQKRQKHKAEAIAVGTEN
  soluble fraction (log2): -0.0393

## HMITMWYYKKDGNIIGPASARKIASMRELGIITDSTPVSRKRNAKNWETFGGLSEKINLESSQWD
  soluble fraction (log2): -1.98

## HMITNEDINIKKLLVVMKDTPLSANEIMDKLNIKSKETLRNMYLDPAIKKGLINLTIPDKPTSKNQKYYK
  soluble fraction (log2): -0.426

## HMITNESEIERIVEAIISKNPESIAQYRSGITKVLGFLVGQVMKETKGRANPALVNRIIISKME
  soluble fraction (log2): -0.899

## HMITSELALVKLVVKGANRVEALRVAETFRARALDVTLSSFVFELTGKPSKLDAFIGLMRSLGDTEILKR
  soluble fraction (log2): -4.17

## HMIVEIVPSALHGERVDRIVAFILDVSRSVASGLVERGAVHVDGSVETSGKVRLVEGQEVSVDPSQVPG
  soluble fraction (log2): -0.69

## HMIVNEQEQTFIKAMRDDDFNTILELKMKGYQPSDNVLKSLQPDISSTTFIAAAKIFQMERMLK
  soluble fraction (log2): -0.502

## HMIVSVPNVRGMGESKAAAALQNRGLLVSIDYESSTSASQGEVIRQSISPGTEVTKGSSITIIIAVSPN
  soluble fraction (log2): -1.56

## HMIVVMQPGATKEQVQAVIDRVAEFGFQTKLAPGAERMVIGVVGSPLPDTLKEALERLPGVEEVIRVSKR
  soluble fraction (log2): -0.379

## HMIVVTSPQVTDERIAEIVAFIEKHGVQAHVSRGTDRTVIGIIGKADPVLAEHLRSMQGVENVIKIS
  soluble fraction (log2): -0.167

## HMIYKLTLLRDLPEAKAGFDFYLRGGLASHDGEEWFSWVTREPIYARLYWLYVEKREEWVLVEETDI
  soluble fraction (log2): -4.51

## HMIYMIDPNDEIAVKLDEIYQRYLNRTIDPEGLIFFYNQIRNAQMGYSDVEKRILESPEYVSIPK
  soluble fraction (log2): -0.53

## HMIYQNVINLLKNRLNSSIYNIGDLLPSEKELAEHYDVSRNTLRKALKTLEEEGMIERRHGSGTYLRNK
  soluble fraction (log2): -1.67

## HMIYWGTMVDKIYEVLSLAGKPLSLMEIYQQVKVFFPNSTKSSIEASMRLDARHRFKYDVEGHVYSLVD
  soluble fraction (log2): -3.44

## HMIYYTEEELVKRYIDFSNYLGKKEGASDVDFKKYAVEFGIPSRDHYNRKFITLFNLKIKAGYKPIRH
  soluble fraction (log2): -0.835

## HMKAAQDQDQAATLLQKATGVNQDQAKLAATVLFKEQSVTPIRQAIASGDYYQAYQDAKSLQQQ
  soluble fraction (log2): 0.221

## HMKADIEQVQRAFDTLDPKNQQLVLDAMKAATAELDPNSDQFKTNTEFINDNQKALDRHAKAS
  soluble fraction (log2): 0.122

## HMKAGAVFNEGDVLYPKIGGLKLMAAAGEGGKVVATLAKTDEMIYMGEEQSGFVKVESGSGSGWVKKILVA
  soluble fraction (log2): 0.438

## HMKAGEDAVQKAVLEAVAESAAAVADYKAGSERALNFIVGKVMKKTRGKASAAEVHRLVREEVDR
  soluble fraction (log2): 0.0653

## HMKAILHQESRSGFANATVIGGLDKFLDTNWNQLSKYIKKIETPYSDRSLEDRKIWISTILGILSTEI
  soluble fraction (log2): 0.279

## HMKALHEEIAEKIQEQILRSNLAPGDKLDTELELAARYGVSRSTIRQALIQLESAGLIDRLHGRGTFVAD
  soluble fraction (log2): 0.59

## HMKAPDSQYKPLTDFQTDASFQKLDAYLRNRYPAMLANAVVYDVLRTPDAISYRVNYQVDNKMITINAAVT
  soluble fraction (log2): -1.66
